The source of these data is patent publication US12357670B2, “Topical cream-based cosmetic and wound healing formulations and methods of use” (Eir Pharmaceuticals, LLC, priority 2018, dated 2025).

The nature of data set [1]: Stability of protein in the cream-based formulation (SDS-PAGE). The format is physicochemical. The settings on record: in the cream formulations, stored at room temperature. Here is the method: Stability is a major issue in incorporating recombinant proteins as active ingredients into a commercial product. […] Samples were then prepared for analysis and loaded onto an SDS-PAGE gel.
The samples were: Lane 1 contains TRIM Family Member protein that was stored in Phosphate Buffered Saline (PBS) at 4° C. for 13 months. Lane 2-4 are samples of the cream-based formulation containing the TRIM Family Member protein. The arrows indicate the band corresponding to the molecular weight of TRIM Family Member protein in each of the samples in Lanes 2-4. […] This is indicated by the lack of doublet bands in the cream samples. Thus, these formulations for the Emulsifier and Hydrogel are viable systems to maintain the activity of the active ingredient.

The nature of data set [2]: Isoelectric point / net charge of TRIM family member. The format is physicochemical.

“TRIM Family Member protein: TRIM-family member protein, MG53, active ingredient of the cream”: the “activity of the active ingredient on storage” value in data set [1] is reported as “remains active for over one year”. This substance returned an isoelectric point in data set [2] of 6.08. Moreover, in data set [2] (physiological pH of blood (7.35)), the net charge entry is on record as “negative”.
